Data taken from article PMC3422223 (PLoS ONE, 2012).
Substitutions are numbered along the chain they refer to.

B1: 18V4F Fab variant d7 (Fab, V domains shown)
VH: EVQLVESGGGLVQPGGSLRLSCAASGFSLYDEGAHWVRQAPGKGLEWVGVIWPGGGTNYNSALMSRFTISKDNSKNTVYLQMNSLRAEDTAVYYCARGPLITTEVSMDYWGQGTLVTVSS
VL: SAEVTQPPSVSVSPGQTARITCSSNTGAVTTSNYANWVQQKPGQAPVGLIGGTNERPSGIPERFSGSSSGNTATLTISGAQAEDEADYYCALWYSNHWVFGGGTKLTVL
B2: 18V4F Fab variant d5 (Fab, V domains shown)
VH: B1 VH with Y30T, D31G, E32Y, G33A, A34M
VL: B1 VL with G27P, A28L, V29R, T30P, T31Y, S32R
B3: humanized 18V4F Fab (Fab, V domains shown)
VH: B1 VH with Y30T, D31G, E32Y, G33A, A34M
VL: B1 VL
notes: also called Hu-18V4F
B4: d5d7 Fab (Fab, V domains shown)
VH: B1 VH
VL: B1 VL with G27P, A28L, V29R, T30P, T31Y, S32R
notes: also called 18V4F Fab variant d5d7; not shown: His6, C-terminal, kept
B5: 18V4F hybridoma antibody (murine IgG2a/lambda) (antibody, V domains shown)
VH: QVQLKESGPGLVAPSQSLSITCTVSGFSLTGYGIHWVRQPPGKGLEWLGVIWPGGGTNYNSALMSRLSISKDNSKSQVFLKMNSLQTDDTAMYYCARGPLITTEVSMDYWGQGTSVTVSS
VL: QAVVTQESALTTSPGETVTLTCRSNTGAVTTSNYANWVQEKPDHLFTGLIGGTNNRAPGVPARFSGSLIGDKAALTITGAQTEDEAIYFCALWYSNHWVFGGGTKLTVL
B6: murine 18V4F Fab (Fab, V domains shown)
VH: B5 VH
VL: B5 VL
notes: also called Mu-18V4F

Experiments:
CCL3 [1] = target: T1, CCL3 (Homo sapiens, UniProt P10147, biotin (sulfo-NHS-LC-biotin) in the Biacore and streptavidin-plate ELISA experiments; not biotinylated where coated directly); experiment: SPR; Biacore 2000; biotinylated CCL3, CCL4, CCL5 immobilised on a streptavidin chip (~100 RU); Fabs flowed over at 500 pM to 1 µM; regeneration 10 mM glycine pH 1.5; triplicate; 1:1 Langmuir fit, murine and humanized 18V4F Fabs fit to a steady state model; settings: both partners purified
T1 construct: CCL3, human, recombinant chemokine from PeproTech
T1 sequence (P10147 24-92): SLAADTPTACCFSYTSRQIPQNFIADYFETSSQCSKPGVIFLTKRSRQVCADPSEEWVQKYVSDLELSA

CCL4 [2] = target: T2, CCL4 (Homo sapiens, UniProt P13236, biotin (sulfo-NHS-LC-biotin) in the Biacore and streptavidin-plate ELISA experiments; not biotinylated where coated directly); experiment: as above; settings: both partners purified
T2 construct: CCL4, human, recombinant chemokine from PeproTech
T2 sequence (P13236 24-92): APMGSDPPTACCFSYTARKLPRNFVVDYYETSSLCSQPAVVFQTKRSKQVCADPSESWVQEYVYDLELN

CCL3 [3] = target: T1, CCL3; experiment: cell-based or functional assay
CCL5 [4] = target: T3, CCL5 (Homo sapiens, UniProt P13501, biotin (sulfo-NHS-LC-biotin) in the Biacore and streptavidin-plate ELISA experiments; not biotinylated where coated directly); experiment: cell-based or functional assay
T3 sequence (P13501 24-91): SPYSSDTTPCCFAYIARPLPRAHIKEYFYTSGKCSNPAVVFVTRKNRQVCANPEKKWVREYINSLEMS

CCL4 [5] = target: T2, CCL4; experiment: cell-based or functional assay
CCL5 [6] = target: T3, CCL5; experiment: SPR; Biacore 2000; biotinylated CCL3, CCL4, CCL5 immobilised on a streptavidin chip (~100 RU); Fabs flowed over at 500 pM to 1 µM; regeneration 10 mM glycine pH 1.5; triplicate; 1:1 Langmuir fit, murine and humanized 18V4F Fabs fit to a steady state model; settings: both partners purified

| Binder | Kd (CCL3 [1]) [nM] | koff (CCL3 [1]) [s⁻¹] | kon (CCL3 [1]) [M⁻¹ s⁻¹] | Kd (CCL4 [2]) [nM] | koff (CCL4 [2]) [s⁻¹] | kon (CCL4 [2]) [M⁻¹ s⁻¹] | IC50 of inhibition of chemotaxis of CCR5-transfected Ba/F3 cells to 5 ng/mL CCL3 (blocks CCL3 with CCR5) (CCL3 [3]) [nM] | IC50 of inhibition of chemotaxis of CCR5-transfected Ba/F3 cells to 5 ng/mL CCL5 (blocks CCL5 with CCR5) (CCL5 [4]) [nM] | IC50 of inhibition of chemotaxis of CCR5-transfected Ba/F3 cells to 5 ng/mL CCL4 (blocks CCL4 with CCR5) (CCL4 [5]) [nM] | Kd (CCL5 [6]) [nM] | koff (CCL5 [6]) [s⁻¹] | kon (CCL5 [6]) [M⁻¹ s⁻¹] |
| --- | --- | --- | --- | --- | --- | --- | --- | --- | --- | --- | --- | --- |
| B1 | 35 | 0.0033 | 110000 | 7.3 | 0.0004 | 60000 | 18 | 4.1 | 0.6 |  |  |  |
| B2 | 30.4 | 0.0031 | 100000 | 15.9 | 0.0012 | 70000 | 187 | 105 | 49 | 5.5 | 0.0014 | 340000 |
| B3 | 272 |  |  | 251 |  |  | > 1000 | > 1000 | > 1000 | 187 |  |  |
| B4 | 8.5 | 0.0054 | 80000 | 1.8 | 0.0036 | 380000 | 1 | 0.9 | 0.2 |  |  |  |
| B5 |  |  |  |  |  |  | 196 | > 1000 | 185 |  |  |  |
| B6 | 209 |  |  | 103 |  |  |  |  |  | 50.3 |  |  |
